Assay in all cases: indirect ELISA, VLP coated at 2 μg/mL, antibody at 10 ng/mL
For orientation: ELISA stands for enzyme-linked immunosorbent assay.

Experiment [1] deals with T1, HPV45 VLP (Human papillomavirus type 45, UniProt P36741 27-539).
T1 construct: also called HPV45完整VLP蛋白
T1 sequence: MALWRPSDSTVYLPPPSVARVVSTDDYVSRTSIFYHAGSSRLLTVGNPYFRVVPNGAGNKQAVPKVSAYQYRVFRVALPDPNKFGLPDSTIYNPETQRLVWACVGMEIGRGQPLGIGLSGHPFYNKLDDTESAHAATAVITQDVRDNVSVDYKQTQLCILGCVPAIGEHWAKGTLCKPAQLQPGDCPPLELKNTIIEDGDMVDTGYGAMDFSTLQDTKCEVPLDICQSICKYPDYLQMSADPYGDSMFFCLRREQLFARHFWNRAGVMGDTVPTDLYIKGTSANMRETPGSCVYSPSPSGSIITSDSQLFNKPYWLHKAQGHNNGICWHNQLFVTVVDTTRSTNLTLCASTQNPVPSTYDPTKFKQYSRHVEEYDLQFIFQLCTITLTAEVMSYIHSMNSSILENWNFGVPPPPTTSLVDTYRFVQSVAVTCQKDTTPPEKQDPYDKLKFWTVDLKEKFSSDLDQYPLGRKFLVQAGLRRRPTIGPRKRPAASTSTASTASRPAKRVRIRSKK

The target of experiment [2] is T2, HPV31 VLP (Human papillomavirus type 31, UniProt P17388 1-504).
T2 construct: also called HPV31完整VLP蛋白
T2 sequence: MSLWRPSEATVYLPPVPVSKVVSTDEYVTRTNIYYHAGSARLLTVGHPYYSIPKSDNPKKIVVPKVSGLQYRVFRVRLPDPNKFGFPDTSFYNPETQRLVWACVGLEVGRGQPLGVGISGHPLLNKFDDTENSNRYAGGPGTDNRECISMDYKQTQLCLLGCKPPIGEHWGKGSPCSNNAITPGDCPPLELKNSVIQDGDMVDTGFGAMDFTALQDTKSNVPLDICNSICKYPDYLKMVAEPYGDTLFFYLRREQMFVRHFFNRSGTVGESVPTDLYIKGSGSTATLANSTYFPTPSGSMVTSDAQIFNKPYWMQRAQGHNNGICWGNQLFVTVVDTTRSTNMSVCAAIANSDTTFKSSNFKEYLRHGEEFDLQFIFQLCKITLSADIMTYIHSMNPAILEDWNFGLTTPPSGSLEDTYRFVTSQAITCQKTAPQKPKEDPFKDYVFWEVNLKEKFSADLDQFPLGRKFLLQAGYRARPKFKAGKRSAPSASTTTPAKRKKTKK

For experiment [3], the target named is T3, HPV35 VLP (Human papillomavirus type 35, UniProt P27232 1-502).
T3 construct: also called HPV35完整VLP蛋白
T3 sequence: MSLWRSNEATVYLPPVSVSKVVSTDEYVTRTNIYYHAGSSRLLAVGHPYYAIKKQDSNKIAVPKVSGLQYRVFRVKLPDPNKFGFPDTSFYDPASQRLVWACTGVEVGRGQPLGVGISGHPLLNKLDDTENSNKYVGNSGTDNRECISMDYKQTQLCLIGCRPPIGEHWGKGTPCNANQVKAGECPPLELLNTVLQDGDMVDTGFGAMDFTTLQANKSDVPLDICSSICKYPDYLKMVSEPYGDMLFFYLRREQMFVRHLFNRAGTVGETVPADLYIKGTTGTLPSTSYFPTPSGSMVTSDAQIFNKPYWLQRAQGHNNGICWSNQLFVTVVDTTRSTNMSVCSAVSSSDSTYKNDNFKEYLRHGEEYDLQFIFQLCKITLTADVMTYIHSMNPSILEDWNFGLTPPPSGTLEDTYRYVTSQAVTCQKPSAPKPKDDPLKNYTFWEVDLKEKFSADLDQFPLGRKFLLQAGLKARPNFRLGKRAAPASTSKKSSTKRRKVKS

Experiment [4] deals with T4, HPV59 VLP (Human papillomavirus type 59).
T4 construct: also called HPV59完整VLP蛋白

The target of experiment [5] is T5, HPV52 VLP (Human papillomavirus type 52, UniProt Q05138 27-529).
T5 construct: also called HPV52完整VLP蛋白
T5 sequence: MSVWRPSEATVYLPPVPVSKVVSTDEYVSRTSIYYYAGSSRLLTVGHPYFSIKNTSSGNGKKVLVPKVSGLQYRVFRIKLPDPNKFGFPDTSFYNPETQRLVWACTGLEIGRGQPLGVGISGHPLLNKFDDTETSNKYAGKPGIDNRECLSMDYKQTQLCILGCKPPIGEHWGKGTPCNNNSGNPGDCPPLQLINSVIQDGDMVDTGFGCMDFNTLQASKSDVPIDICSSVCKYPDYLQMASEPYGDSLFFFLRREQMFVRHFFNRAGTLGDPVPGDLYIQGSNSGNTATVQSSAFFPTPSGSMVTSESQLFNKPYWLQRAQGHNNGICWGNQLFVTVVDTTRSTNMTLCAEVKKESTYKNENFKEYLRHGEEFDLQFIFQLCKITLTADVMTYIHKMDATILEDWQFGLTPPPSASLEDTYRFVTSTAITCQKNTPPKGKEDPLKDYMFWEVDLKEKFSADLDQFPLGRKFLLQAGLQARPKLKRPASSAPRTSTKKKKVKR

Experiment [6] has as its target T6, HPV39 VLP (Human papillomavirus type 39, UniProt P24838 1-505).
T6 construct: also called HPV39完整VLP蛋白
T6 sequence: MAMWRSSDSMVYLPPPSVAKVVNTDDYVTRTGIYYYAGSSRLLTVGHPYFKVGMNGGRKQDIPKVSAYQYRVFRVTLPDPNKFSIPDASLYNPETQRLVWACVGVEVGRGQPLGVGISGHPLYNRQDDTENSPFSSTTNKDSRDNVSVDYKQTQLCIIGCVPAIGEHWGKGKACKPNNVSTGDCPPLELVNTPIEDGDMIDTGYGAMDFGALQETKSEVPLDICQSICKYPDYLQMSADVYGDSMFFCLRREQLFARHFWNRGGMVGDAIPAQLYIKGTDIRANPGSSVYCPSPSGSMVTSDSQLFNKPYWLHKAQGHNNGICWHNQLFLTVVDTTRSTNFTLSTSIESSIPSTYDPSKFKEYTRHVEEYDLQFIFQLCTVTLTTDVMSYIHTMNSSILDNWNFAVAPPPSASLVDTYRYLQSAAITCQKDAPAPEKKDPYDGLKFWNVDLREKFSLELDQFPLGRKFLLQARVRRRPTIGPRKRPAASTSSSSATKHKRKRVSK

B1: HPV 16 R001 (antibody, V domains shown)
VH: QSVKESEGRLVTPGTPLTLTCTASGFTMSRYHMTWVRQAPGKGLEWIGIIYARNSDTYYANWAKGRFTISKTSTTVDLKITSPTIEDTATYFCARVDSDSSGAFDRLDLWGQGTLVTVSS
VL: DPMLTQTAASVEVAVGGTVTIKCQASQSIGGYLSWYQQKPGQRPKLLIYRASTLASGVPSRFKGSGSGTEYTLTFSGVECADAAAYYCQQGYTSSDINNAFGGGTEVVVK
notes: An HRP-labelled form served as detection antibody in the sandwich ELISA; also called HPV16.001; 单克隆抗体HPV 16 R001
Turning to B1, the OD450-blank in experiment [1] is 0.002 OD450; in experiment [2], 0.002 OD450; in experiment [3], 0.001 OD450; in experiment [4], 0 OD450; in experiment [5] it was 0.003 OD450; in experiment [6], 0.004 OD450.

The record behind these values is patent CN112125972A (SINOCELLTECH LTD, dated 2020).
